Experimental data taken from the domain aggregation screens of Martell et al. (2025).

Experiment: soluble fraction after stress (log2 fold change); higher = more stays soluble; pooled small domains, quantitative proteomics
Conditions: stress: 75 degC
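Further: 20 min heating vs room temperature control held 20 min.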

| Sequence | soluble fraction (log2) |
| --- | --- |
| HMDDPISSMVNRIRLAFGLSVTDLAAVLGVERPTIYSWLKDGSTPAPARLTRVRQVLSLADTW | -0.729 |
| HMDDPITVAYRETEDAIAQVQREGFPVEMPPANSYIRRIQHELAGRFNLDSESYGDEPERRVRIRPQQ | -0.107 |
| HMDDPTVILFDPKNGQRKIVKWKAGLTLYSARRSAGISSAAEATIQRAGKSLSGRTATALEPGDVIRW | -1.74 |
| HMDDSSLFGRHTGIGFIVDDIDSGYQTLLAKGVSFEMPPTEQPWGGILALMKDPDGNIFYLD | -0.0389 |
| HMDDTRLLSEIGLSQRVLNALRARGIERVGQVLAMRPDQLLGIRNFGPRALQELRERLQENGYTEGPLFSG | 0.379 |
| HMDDVIDVYATYDVSPTNQISNIKLYSDAAHANPVTGEAGKSYNDITEGHPGYQFRWSGTTWVPI | -1.04 |
| HMDDVIEVEGKVVEVLPNTKFIVELANSHKITAHISGKLRMNYIRIMKGDNVTVEMSPYDLTKGRIIWRS | -0.165 |
| HMDDVVVLPFTAEFARMSSDDFVREILVGKIGMKRFVVGYNHRFGSGQQGDFASLQRMQGELGFVAVRVG | 0.368 |
| HMDDVYMVPVKDIAINDLKQEFEKLGIPNIQNTIPDKDLNFFIVRKDDLALVNYAIEKTMER | 0.0193 |
| HMDEAETELIRRMVSEHPPTTKRERDIVQMRLRGYLFVEIGEAYGISFQRAAQIYNAAVEKIKEYWD | -0.242 |
| HMDEEQIASRRALIMRAAREIMETQGMEALSIRKIAAMIQQTPGIIYHYFSGKEELMLAVVQEGYH | -0.00144 |
| HMDEFAGSAKPLADGAAPAGYDVKGNKDSMKYHEPGGRWYDATVAEVWFKTAADAEAAGFVKAGA | 0.167 |
| HMDEFHLSERERQILNLLVLGHTYKHIASDLNIAYATVNKHVSNVYAKLRVQSASEAVALAIRKGL | -0.992 |
| HMDEFTIILEDAGSQKIAVIKEVRVLNSSLGLKEAKDLVDATPATIMEKADKATADKAKAAFEAAGAKVTI | -0.257 |
| HMDEIDYSKYSITTSNRIINIDGVQSKVELFDVSGRSIQSTMVTGKFSSRPLNAGFYIIHVDGYSVKVSV | -1.19 |
| HMDELIKQVANYIINNRATINETAGAFGKSVSSIKKYINDADKLQRIDFELYQKVKEVQKIVELNGQI | -0.396 |
| HMDEMEFQKYVDQNLKQKGISLTAEAKAELLLRLGGDTMLLHSAIEKLDLYGEKNLNLNDIKHLVSLNSDV | 0.254 |
| HMDENMQRYNTMEEIKKEFPYAEDTVRKLIAMGAIRGGGKVDANGDPADMDLSRDMLRMMVFNDRAGAYG | 0.524 |
| HMDEPGTGFKWREDVLLRVMEANGIDTSHRDDFVRHAVKFDNDDNLYLKKAEIEDAAAAWVSEHS | 0.161 |
| HMDERLAKLTPQERKILDLIAEGATNRQIGTELHLAEKTVKNYVSNMLMKLGMSRRTEAAVFAVKASIN | -1.9 |
| HMDERLLRLYERELQFLREGADEFAQAYPKVAGHLGLNSQSMGDPFIERLLEGLGFLTARIQLQLESEF | -0.47 |
| HMDEWFPVNDDYKFMVGDEVRTPDGLVKVVATHNDSATFYGKIITPIHDDVLKGETYEYRSYEAQVLA | -0.331 |
| HMDEWKRKELWDAIARLPKIQRMVVTMRTTENLPYKEIAKIMNISENSAKVNYHHAVEALKIFF | -2.84 |
| HMDEYGEVQALQRAGQTSEALARADRHIAAHPNDPQMRFVKANLLSAGGRAGEAETLLVQLTRD | -0.0543 |
| HMDFDLIAIFEEQFARALSPIEINIIKEWKNSNYSDDMIVKALKEAVKSQVFNFRYIERILINWSQNG | -1.9 |

| Sequence | soluble fraction (log2) |
| --- | --- |
| HMDFDVELTSAGTAKVKVIKAVREATGLGLKEAKDLVDNAPSIVKEGLDEAAANDLKAALEETGASVTL | 0.0189 |
| HMDFEEGAVKWFNTKKGYGFITRDQGDDIFVHFRNIKAQSRRSLTDGERVTFVVTEGDKGLQADHVSPV | -0.411 |
| HMDFGHWAAHKLEQMSEYRLRHGEAVAIGIALDVLYSVRQGLLARPAAERILSLLERLGFTLFDPELKS | 0.224 |
| HMDFLKSVDLSKYSKVESLILSHLSKGDFDIDDFIRSFSLGTDEVTRAIVSLEIEGIILRKGNRIFRKKS | -1.38 |
| HMDFMNSEIKKIVEDLKLTLQSLNYTKNEIKSILPVINKETDNLIKKEKYASFENLLRLAMNHLDNN | -0.751 |
| HMDFTPDQIARLDDIISRYKDKPGGLIPVLEEAQVALEYLPIGVQKRIAKGLNLPLSRVYGVVTFYSFFTM | -0.0122 |
| HMDFVKGDTVVFIDAFMPDHLMTIHKVQGEGILLDGNHKFALAHLIRHASTVELNAKRRLSLTEQS | -2.42 |
| HMDGASLLDIDGDGKVTPTIDGLLLMRWQFGTRGAALIGGISFPAGALRTTVNAIELHMRRLSETT | -0.699 |
| HMDGDVAVKGGDGVLEVRLANAANVRVYNLAGRLMADYTGTELHMPLPKGVYMVVAGDNRTKVVV | -0.476 |
| HMDGEINPYTGREYVTNSVRMHPRRIGYVQVYSRKDHKWTDMTEWAFLGEQERKKVLLGKAYEPPVYL | -1.91 |
| HMDGEMRRKRILQLLSEQTKPLSGTALAKQFGVSRQVIVQDIALLKSKEPAIISTYRGYVLGR | -1.25 |
| HMDGFAEFWSAYPKKVGKGAAEASWRKHRPPLQTVLDAVKRQAESDQWRKDGGQFIPNPATWLNQKRWEDD | -0.0375 |
| HMDGIIIPDVSGKSYAEAVATLNEKGFKVEKGEDAGSSLAKDLVSYTNPAAGNRAKSGATISVFVSTGANA | 0.407 |
| HMDGKTALQEIVASSGWSPPEYKVSESGPDHDKDFVAYAIVNGVAYPEGHGKSKREAEQVAARIAFEALSK | -0.0295 |
| HMDGMRASDMVRAALAGAGKTQKELAEHMGWTPQNLSGRLKNNSLTFDELSKALHFAGYEVSMSDANGAG | 0.0394 |
| HMDGNVPSVEGKPLSGAKYILETYGYKTGTVTEVNSEDVPAGIVISQNPARGTTLANGGSVNLQVSLG | 0.645 |
| HMDGPGAGGRFLAEDLGTGKMTLEALQRHYVTLVYSRTGKYEETARRLEIDRRTVKKYLDEELLAELRET | 0.0914 |
| HMDGQGIRSITPEYYLSDSATKMPDASSSGWKSVPDDYIDKHYYWVRSKILWDDGTYTTTTPVL | -0.17 |
| HMDGRVQATAEKLRAALDRLARSSVGSPMIERQLTVAALAREARVGRNAIYANHRDILDELIRVRQQRRA | 0.155 |
| HMDGTAKVAHMLVNELETFNRLKKHEIAYMLHIQPETLSRILNKLTRNGTIEIEKNSVVILNIQELKEIY | -1.95 |
| HMDGVNRDKIEYRLDDLYYLKGSDAPYTGKVFEEWSGQQRVETNYIDGKLDGLSESWHENGQKASEVNY | 0.486 |
| HMDHFLRRFQVEGLNLEKLLRLAAEREMDLLQVRRSGRRMTGLVAEKRLPELEELAAQGGWALRLGEY | -0.843 |
| HMDHSSLIKKLRLERGLSQKKLAQGISQRSTLASFENNATKISYNILIQYLDRMNVTLEEYQFMLDGNNL | -2.27 |
| HMDHWQSVNSALELLEVSRRTLYDYISRKKLQTKKEGKYRYVWIDDDVIEEIKTSKSAYIEINN | -2.21 |
| HMDIAATTVKQKIRTLLADEDAARPLSDQKIADALAEDGIDVARRTVAKYREELGIEPSWARKR | 0.106 |
